According to patent US20260174875A1 (Novo Nordisk A/S, priority 2023, published 2026):
Numbered stars: 1 amine (or outer) side, 2 acyl side, 3 side chain; on linkers, the order of the positions; unused ones are H or OH. Square brackets hold non-standard residues; d marks the D form. Side chains are listed from the residue outwards. * marks the point of attachment. C20 diacid = O=C(O)CCCCCCCCCCCCCCCCCCC(=O)*; C18 diacid = O=C(O)CCCCCCCCCCCCCCCCC(=O)*; C16 diacid = O=C(O)CCCCCCCCCCCCCCC(=O)*; γGlu = O=C(O)[C@H](CCC(=O)[*:2])N[*:1]; Chem. 28 = not defined here; AEEA = NCCOCCOCC(=O)O; Aib = CC(C)(N)C(=O)O

Legend:
Assay in all cases: cell-based or functional assay
[1] = target: T1, human amylin-3(a) receptor (human, UniProt P30988 25-474; O60896 24-148)
T1 sequence (looked up) 1: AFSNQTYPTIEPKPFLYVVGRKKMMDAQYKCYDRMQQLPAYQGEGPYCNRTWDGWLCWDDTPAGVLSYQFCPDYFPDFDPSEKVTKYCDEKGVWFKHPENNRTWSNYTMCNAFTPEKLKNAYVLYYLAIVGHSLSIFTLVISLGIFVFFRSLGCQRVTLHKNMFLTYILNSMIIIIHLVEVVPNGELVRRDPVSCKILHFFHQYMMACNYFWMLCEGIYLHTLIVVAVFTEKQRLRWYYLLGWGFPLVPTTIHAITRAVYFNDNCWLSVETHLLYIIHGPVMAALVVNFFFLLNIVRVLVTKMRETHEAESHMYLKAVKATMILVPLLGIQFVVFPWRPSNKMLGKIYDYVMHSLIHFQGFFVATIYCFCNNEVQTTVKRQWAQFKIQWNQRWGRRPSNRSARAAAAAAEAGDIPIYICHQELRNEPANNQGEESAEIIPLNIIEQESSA
T1 sequence (looked up) 2: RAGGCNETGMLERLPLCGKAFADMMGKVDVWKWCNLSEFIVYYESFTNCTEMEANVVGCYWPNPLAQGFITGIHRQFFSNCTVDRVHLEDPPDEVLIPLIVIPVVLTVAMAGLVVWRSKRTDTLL

human GLP-1 receptor [2] = target: T2, human GLP-1 receptor (human, UniProt P43220 24-463)
human GIP receptor [3] = target: T3, human GIP receptor (human, UniProt P48546 22-466)
T3 sequence (looked up): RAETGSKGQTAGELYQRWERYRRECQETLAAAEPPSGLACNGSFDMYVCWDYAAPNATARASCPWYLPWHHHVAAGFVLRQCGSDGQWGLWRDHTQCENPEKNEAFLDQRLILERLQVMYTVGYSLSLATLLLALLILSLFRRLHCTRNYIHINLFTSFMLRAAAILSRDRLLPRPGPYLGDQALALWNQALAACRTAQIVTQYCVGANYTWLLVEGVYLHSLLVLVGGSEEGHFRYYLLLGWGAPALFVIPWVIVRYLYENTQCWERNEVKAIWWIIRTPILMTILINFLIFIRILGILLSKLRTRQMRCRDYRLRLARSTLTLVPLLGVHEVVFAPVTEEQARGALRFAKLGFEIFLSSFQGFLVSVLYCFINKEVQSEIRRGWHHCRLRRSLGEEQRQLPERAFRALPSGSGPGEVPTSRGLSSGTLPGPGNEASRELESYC

[4] = target: T1, human amylin-3(a) receptor; remark: listed apart in the source
human GLP-1 receptor [5] = target: T2, human GLP-1 receptor; remark: listed apart in the source
human GIP receptor [6] = target: T3, human GIP receptor; remark: listed apart in the source

Binder	hAMYR3 Potency, 1% HSA, EC50 [pM] [1] [pM]	hGLP-1R Potency, 1% HSA, EC50 [pM] (human GLP-1 receptor [2])	hGIPR Potency, 1% HSA, EC50 [pM] (human GIP receptor [3])	hAMYR3 Potency, no HSA, EC50 [pM] [4] [pM]	hGLP-1R Potency, no HSA, EC50 [pM] (human GLP-1 receptor [5])	hGIPR Potency, no HSA, EC50 [pM] (human GIP receptor [6])
Compound 58 (reading uncertain) peptide: Y[Aib]EGTFTSDYSILLEEQAAREFIEWLLAGGPSSGAGQAPGQAPLASHLSTAQTQRLSAELHK(Chem. 28)LATLPRTETGSGSP-NH2	134	25.6	7.58	2.91	12.7	1.88
Compound 68 (peptide) peptide: Y[Aib]EGTFTSDYSILLEEQAAREFIEWLLAGGPSRGEASHLSTAQTQRLSAELHK([AEEA-AEEA-γGlu-C18 diacid])LATLPRTETGSGSP-NH2	230	51.9	11.9	2.57	12.1	1.83
Compound 59 (peptide) peptide: Y[Aib]EGTFTSDYSILLEEQAAREFIEWLLAGGPSSGALAQTLAQTLASHLSTAQTQRLSAELHK([AEEA-AEEA-γGlu-C16 diacid])LATLPRTETGSGSP-NH2	24.2	39.8	27.2	3.85	50.6	7.72
Compound 67 (peptide) peptide: Y[Aib]EGTFTSDYSILLEEQAAREFIEWLLAGGPSRGEASELSTAALGRLSAELHK([AEEA-AEEA-γGlu-C18 diacid])LATLPRTETGSGSP-NH2	190	105	37	3.66	15.4	4.28
Compound 62 (peptide) peptide: H[Aib]HGTFTSDYSILLEEQAAREFIEWLLAGGPSK([AEEA-AEEA-γGlu-C16 diacid])GEASQLSTAALGRLSAELHRLADLPRTETGSGSP-NH2	28.8	11.5	47.2	3.35	4.13	2.26
Compound 60 (peptide) peptide: Y[Aib]EGTFTSDYSILLEEQAAREFIEWLLAGGPSSGALAQTLAQTLASHLSTAQTQRLSAELHK([AEEA-AEEA-γGlu-C20 diacid])LATLPRTETGSGSP-NH2	191	173	28.3	3.85	94.4	6.06
Compound 65 (peptide) peptide: H[Aib]HGTFTSDYSILLEEQAAREFIEWLLAGGPSK([AEEA-AEEA-γGlu-C18 diacid])GEASQLSTAALGRLSAELHGLATLPRTETGSGSP-NH2	127	100	118	2.84	4.86	1.89
Compound 64 (peptide) peptide: H[Aib]HGTFTSDYSILLEEQAAREFIEWLLAGGPSK([AEEA-AEEA-γGlu-C18 diacid])GEASQLSTAALGRLSAELHQLATLPRTETGSGSP-NH2	109	67.8	100	1.91	3.71	2.03
Compound 57 (reading uncertain) peptide: Y[Aib]EGTFTSDYSILLEEQAAREFIEWLLAGGPSSGAGQAPGQAPGASHLSTAQTQRLSAELHRLATLPK(Chem. 28)TETGSGSP-NH2	85	29.6	5.85	3	12.8	1.98
Compound 69 (peptide) peptide: H[Aib]HGTFTSDYSILLEEQAAREFIEWLLAGGPSRGEASHLSTAQTQRLSAELHK([AEEA-AEEA-γGlu-C18 diacid])LATLPRTETGSGSP-NH2	78.9	20.4	8.05	3.43	3.45	1.9
Compound 56 (reading uncertain) peptide: Y[Aib]EGTFTSDYSILLEEQAAREFIEWLLAGGPSSGAGQAPGQAPGASHLSTAQTQRLSAELHRLK(Chem. 28)TLPRTETGSGSP-NH2	44.9	58.4	8.48	2.36	18.2	2.65
Compound 61 (peptide) peptide: H[Aib]HGTFTSDYSILLEEQAAREFIEWLLAGGPSK([AEEA-AEEA-γGlu-C16 diacid])GAPPPSGGGEASHLSTAQTARLSAELHRLADLPRTETGSGSP-NH2	30.8	14.7	16	2.97	2.79	1.3
Compound 63 (peptide) peptide: H[Aib]HGTFTSDYSILLEEQAAREFIEWLLAGGPSK([AEEA-AEEA-γGlu-C18 diacid])GEASQLSTAALGRLSAELHTLATLPRTETGSGSP-NH2	70.2	101	63.2	2.86	4.77	1.6
